B1: RILP-like protein 1 (Homo sapiens), Q5EBL4 (parent)
chain: MEEERGSALAAESALEKNVAELTVMDVYDIASLVGHEFERVIDQHGCEAIARLMPKVVRVLEILEVLVSRHHVAPELDELRLELDRLRLERMDRIEKERKHQKELELVEDVWRGEAQDLLSQIAQLQEENKQLMTNLSHKDVNFSEEEFQKHEGMSERERQVMKKLKEVVDKQRDEIRAKDRELGLKNEDVEALQQQQTRLMKINHDLRHRVTVVEAQGKALIEQKVELEADLQTKEQEMGSLRAELGKLRERLQGEHSQNGEEEPETEPVGEESISDAEKVAMDLKDPNRPRFTLQELRDVLHERNELKSKVFLLQEELAYYKSEEMEEENRIPQPPPIAHPRTSPQPESGIKRLFSFFSRDKKRLANTQRNVHIQESFGQWANTHRDDGYTEQGQEALQHL
B2: RILP-like protein 2 (Homo sapiens), Q969X0 (parent)
chain: MEEPPVREEEEEEGEEDEERDEVGPEGALGKSPFQLTAEDVYDISYLLGRELMALGSDPRVTQLQFKVVRVLEMLEALVNEGSLALEELKMERDHLRKEVEGLRRQSPPASGEVNLGPNKMVVDLTDPNRPRFTLQELRDVLQERNKLKSQLLVVQEELQCYKSGLIPPREGPGGRREKDAVVTSAKNAGRNKEEKTIIKKLFFFRSGKQT

Variants of: B1
Conditions: with rab8a_human RAB8A

effect of a mutation on the interaction	Variant
disrupting interaction strength	R293E
disrupting interaction strength	K310E
disrupting interaction strength	R291E

Variants of: B2
Conditions: with rab8a_human RAB8A

effect of a mutation on the interaction	Variant
disrupting interaction strength	R130E
disrupting interaction strength	R132E
disrupting interaction strength	K149E
